Target: SARS-CoV-2 receptor-binding domain, wild-type (SARS-CoV-2) (UniProt P0DTC2)
Test: AlphaScreen or HTRF

Substance “SARS-CoV-2 receptor-binding domain, wild-type (from UniProt P0DTC2 319-541) (domain or fragment)” has an AlphaLISA signal of 29000 CPS.

Reference: PMC10357528
